Laboratory results published in the nanobody polyreactivity screen of Harvey et al. (2022).

Assay: yeast display, Sf9 membrane polyspecificity reagent, FACS + sequencing; frameworks hold sequencing errors
Procedure, shortened: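 Galactose induction of a Saccharomyces cerevisiae BJ5465 synthetic nanobody display library ran 36–48 hours. The cells were then stained for 1 hour at 4 °C with 10% biotinylated, detergent-solubilized Sf9 membrane reagent, pulled down on streptavidin microbeads and FACS-sorted into low and high (top ~1%) gates on expression and reagent-binding fluorescence. Labels for polyreactivity follow the gate of origin.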
With “QVQLVESGGGLVQAGGSLRLSCAASGIIFYYYGMGWSRQAPGKEREFVAAISTSGGNTYYADSVKGRFTISRDNAKNTVYLQMNSLKPEDTAVYYCAADDWPWGDAGVDYWGQGTQVTVSS” the “polyreactivity (PSR sort gate)” value was “low polyreactivity”.
For “QVQLVESGGGLVQAGGSLRLSCAASGIIIGGNAMGWYRQARGKERELVAAINSDDSTYYADSVKGRFTISRDNAKNTVYLQMNSLKPEDTAVYYCAVTETYYSPYSGYWYEYDHWGQGTQVTVSS”, the “polyreactivity (PSR sort gate)” value was “high polyreactivity”.
In the case of “QVQLVESGGGLVQAGGSLRLSCAASGIIILWNAMGWDRQAPGKERELVATISWTDGSTSYADSVKGRFTISRDNAKNTVYLQMNSLKPEDTAVYYCNVRHKSYRKSDYWGQGTQVTVSS”, the “polyreactivity (PSR sort gate)” value is reported as “low polyreactivity”.
With “QVQLVESGGGLVQAGGSLRLSCAASGIIIPYYAMGWYRQAPGKERELVAAISSGGSTNYADSVKGRFTISRDNAKNTVYLQMNSLKPEDTAVYYCAAKYTSYASWPIWVVDQFDYWGQGTQVTVSS” the “polyreactivity (PSR sort gate)” value was “low polyreactivity”.
With “QVQLVESGGGLVQAGGSLRLSCAASGIIIRGYAMGLYRQAPGKERELVAGITSGGRTYYADSVKGRFTISRDNAKNTVYLQMNSLKPEDTAVYYCNADAYGDDWKIYDYWGQVTQVTVSS” the “polyreactivity (PSR sort gate)” value was “low polyreactivity”.
For “QVQLVESGGGLVQAGGSLRLSCAASGIIIVRYAMGWYRQAPGKERELVAAISWSGGRTYYADSVKGRFTISRDNAKNTVYFQINSLKPEDTAVYYCAAAPLYYHRRGYYYWGQGTQVTVSS”, the “polyreactivity (PSR sort gate)” value was “high polyreactivity”.
With “QVQLVESGGGLVQAGGSLRLSCAASGIILAYYAMRWYRQAPGKERELVASINRSGGSTYYADSVKGRFTISRDNAKNTVYFQMNSMKPEDTAVYYCDATTRGVGQWWYRYYYWGQGTQVTVSS” the “polyreactivity (PSR sort gate)” value was “high polyreactivity”.
With “QVQLVESGGGLVQAGGSLRLSCAASGIILDPNAMGGYRQAPGKERELVAGITRSGVSTYYADSVKGRFTISRDNAKNTVYLQMKSLKPEDTAVYYCAKDRIYGSKGEDDDYWGQGTQVTVSS” the “polyreactivity (PSR sort gate)” value was “low polyreactivity”.
In the case of “QVQLVESGGGLVQAGGSLRLSCAASGIILGSYVMGWYRQAPGKERELVAVISFSGGSTYSADSVKGRFTISRDNAKNTVYLQMNSLKPEDTAVYYCAADNFRSYTIRSPYNYWGQGTQVTVSS”, the “polyreactivity (PSR sort gate)” value is reported as “low polyreactivity”.
With “QVQLVESGGGLVQAGGSLRLSCAASGIILGYYAMGWYRQAPGKERELVAAINWSGASTYYADSVKGRFTISRDNAKNTVYLQMNSLKPEDTAVYYCARRAYGTRVLFDYWGQGTQVTVSS” the “polyreactivity (PSR sort gate)” value was “high polyreactivity”.
With “QVQLVESGGGLVQAGGSLRLSCAASGIILHYYAMGSYRQAPGKERELVAAISARGGRTYYADSVKGRFTISRDNAKNTVYLQMNSLKPEDTAVYYCARYLRRSSPSPGYGYWGQGTQVTVSS” the “polyreactivity (PSR sort gate)” value was “high polyreactivity”.
For “QVQLVESGGGLVQAGGSLRLSCAASGIILHYYTMGWYRQAPGKERELVAAITFSGGGTYYADSVKGRFTISRDNAKNTVYLQMNSLKPEDTAVYYCAAPWRYYGHDYWGQGTQVTVSS”, the “polyreactivity (PSR sort gate)” value was “low polyreactivity”.
For “QVQLVESGGGLVQAGGSLRLSCAASGIILPYYVMGSYRPAPGKERELVAAISSGGRTYYADSVKGRFTISRDNAKNTVYLQMNSLKPEDTAVYYCNAYFTGKWYDYWVQGTQVTVSS”, the “polyreactivity (PSR sort gate)” value was “high polyreactivity”.
With “QVQLVESGGGLVQAGGSLRLSCAASGIILRRYAMGWYRQAPGKERELVARISYRGGRTNYADSVKGRFTISRDNAKNTFYLEMNSLKPEDTAVYYCDAVDWYYHEGTAYNYWGQGTQVTVSS” the “polyreactivity (PSR sort gate)” value was “high polyreactivity”.
For “QVQLVESGGGLVQAGGSLRLSCAASGIILSENDMGWYRQAPGKERELVAAITSSGSTSYADSVKGRFTISRDNAKNTVYLQMNSLKPEDTAVYYCAADYLNPFPPYQYWKQSYDYWGQGTQVTVSS”, the “polyreactivity (PSR sort gate)” value was “low polyreactivity”.
For “QVQLVESGGGLVQAGGSLRLSCAASGIILYTYAMGWYRQAPGKEREFVAGIRWSGSSTYYADSVKGRFTISRDNAKNTVYLQMNSLKPEDTAVYYCATGQPYGPLYSLGYGYWGQGTQVTVSS”, the “polyreactivity (PSR sort gate)” value was “high polyreactivity”.
For “QVQLVESGGGLVQAGGSLRLSCAASGIILYYNALGWYRQAPGKERELLAAITTSGVSTYDADSVKGRFTISRDNAKNTVYLQMKSLKPEDTAVYYCNARARARYFYEMDYWGQGTQVTVSS”, the “polyreactivity (PSR sort gate)” value was “low polyreactivity”.
In the case of “QVQLVESGGGLVQAGGSLRLSCAASGIISGDYAMGWYRQAPGKERELVARITSGDSTNYADSVKGRFTISRDNAKNTVYLQMNSLKPEDTAVYYCAAKRYVFQNDYWGQGTQVTVSS”, the “polyreactivity (PSR sort gate)” value is reported as “low polyreactivity”.
In the case of “QVQLVESGGGLVQAGGSLRLSCAASGIISYKNVMGWYRQAPGKERELVAAISGRGGSTYYADSVKGRFTISRDNAKNTVYLQMNSLKPEDTAVYYCAKYPGISGYNYWGQGTQVTVSS”, the “polyreactivity (PSR sort gate)” value is reported as “high polyreactivity”.
With “QVQLVESGGGLVQAGGSLRLSCAASGIISYLNAMGWYRQAPGKERELVAAITGGGRTNYADSVKGRFTFSRDNAKNTVYLQMNSLKPEDTAVYYCNAYSSNYRYWARRGRPYNYWGQGTQVTVSS” the “polyreactivity (PSR sort gate)” value was “high polyreactivity”.
In the case of “QVQLVESGGGLVQAGGSLRLSCAASGIIVAWYAMGWYRQAPGKERELVARISSGASPNYADSVKGRFTISRDNAKNTVYLQMNSLKPEDTSVYYCAAVSHPFRRSRYDYWRQGTQVTVSS”, the “polyreactivity (PSR sort gate)” value is reported as “high polyreactivity”.
In the case of “QVQLVESGGGLVQAGGSLRLSCAASGIIVSYYAMGWYRQAPGKERELVAAITSGGSTNYADSVKGRFTISRDNAKITVYLQMNSLKPEDTAVYYCAAERGDTAYRKYDYWGQGTQVTVSS”, the “polyreactivity (PSR sort gate)” value is reported as “low polyreactivity”.
For “QVQLVESGGGLVQAGGSLRLSCAASGIIYNPNAMGWYRQAPGKERELVAVISISDSTNYADSVKGRFTISRDNAKNTVYLQMNSLKPEDTAVYDCATASAGTLSVTYYHWYDDWGQGTQVTVSS”, the “polyreactivity (PSR sort gate)” value was “low polyreactivity”.
For “QVQLVESGGGLVQAGGSLRLSCAASGILFSAHAMGWYRQAPGKERELVAAISKSGSRTYYADSVKGRFTISRDNAKNTVYLQMNSLKPEDTAVYYCNAVTYSRRYAYYYWGQGTQVTVSS”, the “polyreactivity (PSR sort gate)” value was “high polyreactivity”.
With “QVQLVESGGGLVQAGGSLRLSCAASGINLNNYPLGSYRQAPGKDRELVAAITSSGTRTYYADSVKGRFTISRDNAKINVYLQMNSLKPEDTAVYYCAAQPVYDLWGQGTQVTVSS” the “polyreactivity (PSR sort gate)” value was “high polyreactivity”.
In the case of “QVQLVESGGGLVQAGGSLRLSCAASGINLRRYAMGWYRQAPGKERELVARISYRGGRTNYADSVKGRFTISRDNAKNTVYLQMNSLKPEDTAVYYCAAVAWYYHEGTAYNYWGQGTQVTVSS”, the “polyreactivity (PSR sort gate)” value is reported as “high polyreactivity”.
In the case of “QVQLVESGGGLVQAGGSLRLSCAASGIPFEGYAMGWYRQAPGKERELVAAIRSSGTSTYYADSVKGRFTISRDTAKNTVYLQMNSLKPEDTAVYYCNRARSSSRYDYWGQGTQVTVSS”, the “polyreactivity (PSR sort gate)” value is reported as “low polyreactivity”.
For “QVQLVESGGGLVQAGGSLRLSCAASGIPFKGYAMGWYRQAPGQERELVAASNSRGGTYADSVKGRFTISRDNAKNTVYLQRNSLKPEDTAVYYCGVSAVRPLPLDSGYDYWGQGSQVTVSS”, the “polyreactivity (PSR sort gate)” value was “low polyreactivity”.
In the case of “QVQLVESGGGLVQAGGSLRLSCAASGIPRNTMGWYRQAPGKERELVASISTSGGSTYYADSVKGRFTISRDNAKNTVYLPMNSLKPEDTAVYYCAKKGYASRYFIYDYWGQGTQVTVSS”, the “polyreactivity (PSR sort gate)” value is reported as “low polyreactivity”.
With “QVQLVESGGGLVQAGGSLRLSCAASGIRFAQYTMGGYRQAHGKESELVAAINRNGGSTYYADSVKGRFTISRDNAKNTVYLQMNSLKPEDTPVYYCNADALGFRYDYWGQGTQVTVSS” the “polyreactivity (PSR sort gate)” value was “low polyreactivity”.
In the case of “QVQLVESGGGLVQAGGSLRLSCAASGISIRSYAMGWYRQAPGKERELVAAIRSGGSTSYADSVKGRFTISRDNAKNTVYLLMNSLKPEDTAVYYCAAGGYVPLPDITFWKFGYWGQGTQVNVSS”, the “polyreactivity (PSR sort gate)” value is reported as “low polyreactivity”.
In the case of “QVQLVESGGGLVQAGGSLRLSCAASGITFADNAMGWYRQAPGKERELVASISKSSGSTYYADSVKGRFTISRDNAKNTVYLQMNSLKPEDTAVYYCATDPYVRRSPSWYDYWGQGTQVTVSS”, the “polyreactivity (PSR sort gate)” value is reported as “low polyreactivity”.
With “QVQLVESGGGLVQAGGSLRLSCAASGITFAFYAMGWYRQAPGKERELVAAISWSGTRTYYADSVKGRFTISRDNAKNTVYLQMNSLKPEDSAVYYCAADYQAGDKLYDYWGQGTQVTVSS” the “polyreactivity (PSR sort gate)” value was “low polyreactivity”.
With “QVQLVESGGGLVQAGGSLRLSCAASGITFAFYDMGWYRQAPGKERELVAAISYSGGGTYYADSVKGRFTISRDNAKNTVYLQMNSLKPEDTAVYYCAADPKTHPLFGEDYWGQGTQVTVSS” the “polyreactivity (PSR sort gate)” value was “low polyreactivity”.
For “QVQLVESGGGLVQAGGSLRLSCAASGITFAGYAMGWYRQAPGKERELVAAITRGGGITYYADSVKGRFTISRDNAKNTVYLQMNSLKPEDTPVDYCNAVVTSAAGYFPLLYDYWGQGTQVTVSS”, the “polyreactivity (PSR sort gate)” value was “high polyreactivity”.
In the case of “QVQLVESGGGLVQAGGSLRLSCAASGITFAGYAMRWYRQAPGKERELVASMTWGGGRTYYADSVKRRFTISRDNAKNTVYLQMNSLKPEDTAVYYCATRRRPQYNKYDYWGQGTQVTVSS”, the “polyreactivity (PSR sort gate)” value is reported as “high polyreactivity”.
For “QVQLVESGGGLVQAGGSLRLSCAASGITFARYAMGLYRQAPGKERELVAAISWSGGSTYYADSVKGRFTISRDNAKNTVYLQMNSLKPEDTAVYYCAAGGRVRRNKFDYWGQGTQVTVSS”, the “polyreactivity (PSR sort gate)” value was “high polyreactivity”.
In the case of “QVQLVESGGGLVQAGGSLRLSCAASGITFASNTMGCYIQAPGKERELVAAITRGDNTYYADSVKGRFTISRDNAKNTVYLQMNSLKAEDPAVYYCATEGYQIQYEHDYWGQGTQVTVSS”, the “polyreactivity (PSR sort gate)” value is reported as “low polyreactivity”.
With “QVQLVESGGGLVQAGGSLRLSCAASGITFASYAMGWYRQAPGKERELVAAISTRSGGTYYADSVKGRFTISRDNAKNTVYLQMNSLKPEETAVYYCAAYNVIYTRRMYYWGQGTQVTVSS” the “polyreactivity (PSR sort gate)” value was “high polyreactivity”.
For “QVQLVESGGGLVQAGGSLRLSCAASGITFATNAMGWYRQAPGKERELVAAISWSGGSTYYADSVKGRFTISRDNAKNTVYLQMNSLKPEDTAVYYCATGYSVWYDYWGQGTQVTLSS”, the “polyreactivity (PSR sort gate)” value was “low polyreactivity”.
With “QVQLVESGGGLVQAGGSLRLSCAASGITFAWYAMGWYRQAPGKEREFVAAITGSGGRTYYADSVKGRFTISRDIAKNTVYLQMNSLKPEDTAVYYCATASSVSGARYDYCGQGTQVTVSS” the “polyreactivity (PSR sort gate)” value was “high polyreactivity”.
With “QVQLVESGGGLVQAGGSLRLSCAASGITFAYNAMGWYRQAPGKERELVARITSGGRTYYADSVKGRFTISRDNAKNTVYLQMKSLKPEDTAVYYCNAKEGSRYRKYDYWGPGTQVTVSS” the “polyreactivity (PSR sort gate)” value was “low polyreactivity”.
In the case of “QVQLVESGGGLVQAGGSLRLSCAASGITFAYNTMGWYRQAPGKERELVAGISVSGASTYYADSVKGRFTISRDNAKNSVYLQMNSLKPEDTAVYYCAAPRWVANQYREYDYWGQGTQVTVSS”, the “polyreactivity (PSR sort gate)” value is reported as “high polyreactivity”.
